Reference: a protein production outcome set (Wang et al. 2014)

Experiment: label from the status in PepcDB records

With “MLTVHRDARDYQIIFLCSFLSLGILARDWSLSPLVIAVVLATALTVQSLFTINQQGNFSRWFSLDTWQSLWRHQGWKSALITGLGLCLLLRANHLSTLILAASLAIASKFLLQAWGKHWFNPANFGIIAALTLTGDAWVSPGQWGTTLWLGAVFLAAGGLVLGKVGRWDTSIMFLAVYAGLDLARNAWLGWPPEVSFHHLENGSLLVFALFMLTDPRSIPNARSSRLIWATAIAIFSLILQYHFYLPTALFWALFCLSPLTVLLDRQFPAPRFQWWQKKNPVPSN” the protein production was “failed”.

In the case of “MLTYYLKTEIQLLFRKKVYLVLSILVPLALYLLFTSILDLPEEAKKPFYKEYMYSMTAFSLSSFCLMQFPIDLINEKTTGWYKNLMRTPLQSHQYYMAKVFKMMFQFILAILLIFIVAHFMKGVEMSTSDWLLSGLILWIGASTFLSVGVLISQINEIQKASSIGNILYLSLAILGGLWFPVSQFPEWMRKIAYVTPTYHLKQVAYEIGKGGTLDYLSLFVLVGYSILFLVVALIIQKRRDVDI”, the protein production is reported as “failed”.

With “MLVLIMWLCQQRSCRRLKRGDPMAQFENNRQRLFVPAVAPLYNSTHDLVETILRVAAGLLLVTHGFGKIVNPFGAVGMVESLGFHPGVFWSPLLAATEFFGGILVAIGLFTRPASFAAMIVLLVTVYFHGIVKAEGLGGAEKSILWAAIFLFFAVRGGNRHSVDAKLTREF” the protein production was “failed”.

For “MLVNFIKNFIPHRFYSSKTEIPVVRLHGAIIDSSSSIARTLSLGRCANLLDKAFAYKKAPAVAVIINSPGGSPVQSRLIFKRIRDLAEEKKKQVLMFIEDIAASGGYMIACAGDEIFADPSSIVGSIGVVSASFGFPELLKKIGIERRVYTAGKNKVTLDPFQPEKKTDIEHLKSLQLEVHKTFIDLVKERRAEKLSNDPNIFTGMFWSGKKSVELGLIDGLNDVRSVIKERFGDDTKLRLIIPPKSLFGPKTPSGVTAHAVHTAIDSALMVAQERALWQYYGLLEHHHHHH”, the protein production was “not failed”.

For “MLVNGQHYHLINDISGEKPVLLMLHGFTGSSETFQDSISLLKEHFSIIAPDLLGHGKTSCPKEVARYSIENICDDLASILHQLKIDSCFVLGYSMGGRVATAFAAKYKELVRGLVLVSSSPGLRDEKARASRISADNRLADTLDADGIEPFVAYWENLALFASQKNLPFALKKRIRLERLAQNPHGLAKSLRGMGTGKQPSYWENLADFTFPVLLITGNLDEKFEKIAREMKQLLPNSTHVTVQEAGHAVYLEQPNIFSSQLIYWLEGILKEEEK”, the protein production was “failed”.

In the case of “MLVSEAVLPLLFYGILTPVYQVILRGKISNVKGFYLAWITAPFLVGYFFYSTLVEVFLLLIFNIIGYIIVLKNKYKYIFPLLLFSAVIIQIFYILTTLHTIHG”, the protein production is reported as “failed”.

With “MLVSLLGILLSVIVGFVVTLISTKWVIGLCKKRGFTGKDINKLTKDDVPVLGGIGIVAGFVAGSFTFLLTSYNLSPGIENVVVSILLSSLIIGFLGLLDDIFNISQATRAFLPIFASIPLILYSVGHTIISIPFLGKVNFGILFYIIILPATLTITANAFNMLEGLNGLGAGMGLIMALALAYIGLKSGGTSFYAGIVSIILASVLFGFLIFNFYPAKTFPGNIGTYFIGSVIGSIGISGYMYTALFFLYLPYVIEFVLKAKTRFKGVSFGKIDDQGYLHWDSKPNSLTHIVMRIGKFKEYHIVLIIWGIEILFAILAVVFQTVTITI” the protein production was “failed”.

With “MLVWLSDSQAVALVGLVGGIALGLAARLGRFCTLGAIEDLLYGGSDVRMRMWVLAIGAAMAGSFGLMGLGWLDPGQSYYLSIRWMPLASILGGLMFGYGMALAGNCGYGSIARLGGGDLRAFVIVLVMGVFTYVTLAGPLAPLRNLLFPQIEVAGDLPPGLAHHAHALTGLPVHVIGIGIGLILCLGALSSRDMRQEPKSIFWSLVVAAAIVGGWAGSYWVYQHGFDGLQVVSHSFSAPVGESILYAMTGSVRPLSFAVGSVAGVWAGAFIGSLIKGHFRWEACEDPRELRRQILGAAIMGTGAVIAMGCTVGQGLTAFSLLAISAPVTFLAIFAGAALGLRQLIEGFSAAE” the protein production was “failed”.

With “MLWARLVGLARLEARALSKKERRSLLERLKPYYTRIPFSEKADLRLVKARTDSGEYEIITVDGVPCLFEWSDGRIYPTLQCLKAFGVDWLKGVVLVDKGAAIALAKGAHLMIPGVVGVEGSFTRGDVVAALYHETRTPVMVGVAEVDSSALEKLYREKARGRAVRRVHRLGDALWELAQEVGKRLS” the protein production was “not failed”.

For “MLYLKRILIVGLSFVVGLINIIGNNYTVFALEKNTLVHQNVMSMIQSQRGGLFDPIYTESLEDNWQGDYIYYGEDTDGSALKWQLLDSDNKDFSKNANSTMFLFSDKTIGTSFWYRENDYGFDYSNVKPGETPIYWQKGYEWDKSDLKTNMEDEMKNKFSSIENEGIIFSSKSSEDAQNVAVGLEKLGTTEMTASKWFPLSIQELTNKCYGFSSVPFNRNQAPLGLHTGDKSRVSSDDKNYLIRSYEEHWTKPMENGMRYHPVFVLNSNSVYGANCAGGLNYGNMYTVQSMRPAMNIDTSKVMLVKSHNQKEIIGIKAVNDSKTNEFKLTLLDDKQKLNIENIKTERDKITFDFEAIGNGKYLSVVVQDENNNVMYYGNIKDNLDKVNVGTMTIDLNQIGLNSKSFSSGEYKLSIFTEQLNFDKKTDYSSKFVDVEVVQNNVPPAVINKVPTIVAEDKVLTVGDTFDPLKDVTAYDNEDGIIKLTEANIAANDVNTNKEGTYNVTYKVTDKQGASSTKTITIDVIERIVIPENKPVDKTNNDTNSSNSSKVPQTGDINNIGVLAVTLMMSGSIVIGCNRKKSKANSLSEK”, the protein production was “failed”.

With “MLYLNFPSVSIRLFASDESNTLKRWPVFPRSLRQLVMLAFLLILLPLLVLAWQAWQSLNALSDQAALVNRTTLIDARRSEAMTNAALEMERSYRQYCVLDDPTLAKVYQSQRKRYSEMLDAHAGVLPDDKLYQALRQDLNNLAQLQCNNSGPDAAAAARLEAFASANTEMVQATRTVVFSRGQQLQREIAERGQYFGWQSLVLFLVSLVMVLLFTRMIIGPVKNIERMINRLGEGRSLGNSVSFSGPSELRSVGQRILWLSERLSWLESQRHQFLRHLSHELKTPLASMREGTELLADQVVGPLTPEQKEVVSILDSSSRNLQKLIEQLLDYNRKQADSAVELDNVELAPLVETVVSAHSLPARAKMMHTDVDLKATACLAEPMLLMSVLDNLYSNAVHYGAESGNICLRSSLHGARVYIDVINTGTPIPQEERAMIFEPFFQGSHQRKGAVKGSGLGLSIARDCIRRMQGELYLVDESGQDVCFRIELPSSKNTK” the protein production was “failed”.

In the case of “MLYNSEVITYERAPKSEKDTKVENIKKLFILKVLIYAVSSFAISRVVMINSMVPFGIAFLACVLIYKKNDKASFLAAVGSLVGYISISGEVKDSVMYEIGVIIITLLMVVMKEKEDIKKLVTSAIFLLIEFIMFKILVEKLTVQSALIFTLIEIACVCSVYYIIRYGIICLDNIRTKHLFTNEEIISMSVLVALVISGTRNFDIYNVSIRNVLAMVFVIAISYIEGSSAGAAGGIAIGAIIGMNSSDVMIYIGVFGFLGFIAGVFKDFGKWITAGVYLIIFLIIIIYCKNHVDFSLMEAAITCIIFAGIPNKLYKKMECEFNWDRKQSDITNRYIEKMKDIFVKKLENFSEVLFTMSTTLNNLADNDKLTMKNKSCRLVENLADRVCGKCNMNSICWKREIYYTYAAFEELIQNFQEGINKIPDEIERKCVRRKELIKHTDMIINDYIMNEMWRMQVCSGREFMSAQVKNIGTSVENIIDEFSNELKFNVDVEEKIIRLLNKMGIPYKDIMCVNDKRNRNLVKLTMEACGGRQICVKHVLPVINEAVGTLMCVGDDGCSICPETNLCSVTFEETPKYYISSQIVRACKDGEEVNGDSYSFGKGKDGNYNIIISDGMGHGVQAEKESRAVIDLIEKFNESSLNRTMAINTVNSIMTLKFEEDEKFSTVDLCSVDLYSGDAEFIKVGGVTSFIKKKDKIEVINAKTLPIGVLDTVDMEVNHKKVENGDMIVMISDGVVNYDDENAGKVNWIIDFLKNSSANKPKELGEAMLKKAIELSGGKAKDDITIIISKVYSLY”, the protein production is reported as “failed”.

With “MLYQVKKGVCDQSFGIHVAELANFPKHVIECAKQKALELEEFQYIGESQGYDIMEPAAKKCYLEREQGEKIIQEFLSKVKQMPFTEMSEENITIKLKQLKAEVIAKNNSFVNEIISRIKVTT” the protein production was “failed”.

With “MMAEGGAADLDTQRSDIATLLKTSLRKGDTWYLVDSRWFKQWKKYVGFDSWDKYQMGDQNVYPGPIDNSGLLKDGDAQSLKEHLIDELDYILLPTEGWNKLVSWYTLMEGQEPIARKVVEQ” the protein production was “not failed”.

In the case of “MMAPPSQVQGRLSSSMNKSLALLTVTLLLGGCQSLIHKTPDGTPPVEDTAVETKAKPEKYGSFSEDSLYSLLVAELAGQRNRFDIALSNYVVQAQKTRDPGVSERAFRIAEYLGADQEALDTSLLWARSAPDNLDAQRAAAIQLARAGRYEESMVYMEKVLNGQGDTHFDFLALSAAETDPDTRAGLLQSFDHLLKKYPNNGQLLFGKALLLQQDGRPDEALTLLEDNSASRHEVAPLLLRSRLLQSMKRSDEALPLLKAGIKEHPDDKRVRLAYARLLVEQNRLDDAKAEFAGLVQQFPDDDDLRFSLALVCLEAQAWDEARIYLEELVERDSHVDAAHFNLGRLAEEQKDTARALDEYAQVGPGNDFLPAQLRQTDVLLKAGRVDEAAQRLDKARSEQPDYAIQLYLIEAEALSNNDQQEKAWQAIQEGLKQYPEDLNLLYTRSMLAEKRNDLAQMEKDLRFVIAREPDNAMALNALGYTLADRTTRYGEARELILKAHKLNPDDPAILDSMGWINYRQGKLADAERYLRQALQRYPDHEVAAHLGEVLWAQGRQGDARAIWREYLDKQPDSDVLRRTIKRLTGAETP”, the protein production is reported as “failed”.

For “MMDAMTDPITFAATAAGRDAAHPLRDISFGEIGIATERKPDGTIYVRSTTTLTDYPVRITDRLHHFAETAPDRVFMAERNGEGGWRRISYAEMLRAAQTIASALIARGLSAERPVMILSGNSIDHAMVMFGALYAGVAMCPVSPPYSLVSKDYGKLRHIVGLLTPGLIFADDITAFAPAILATVPEDVELAATRGEVKGRKVTSLAELLATPEHPELAAKHEAIGHDTIAKFLLTSGSTGNPKAVINTQRMICANQVMIREAMAFLKDEPPVIVDWLPWNHTFGGNHNIGLTLFNGGSMYIDDGKPTPAGIASTIRNLREIAPTVYFNVPKGYESLLPVLREDQQLRKLFFSRLHAMFFSGASLAAHVWNGLDEVAVAETGARVPMLTGLGATETAPFFMSVTPQTSRSGHVGLPVPGNEAKLVPNNGKLEVRAKGPNITPGYWRAPELTDKAFDEEGFYKLNDALKPVDANDLSRGFDFDGRISEDFKLASGTWVSVGPLRAKFIAACASLVRDVVIAGLDRDYVTALAILDPDGCKLINATLPLEDLAGMAADHLIREAFRERFATLLTQATGSSNRVTRAVLLGEPLSIDKGEITDKGSVNQRAVLEYRASLIADLYADPPPAHVIALELEHHHHHH”, the protein production was “not failed”.

With “MMDSCIRIAGIIGESIVDGPGIRLVVFAQGCPHHCPGCHNPETHAYEGGKSVAIAEILQRLAMNPLLDGITLSGGEPFAQAAGFALLAQSARQRGFHVMTYSGYTYEELTASSEQNPAWALLLEQTDLLVDGPFQLAERNLLLPFRGSENQRVIDVQESLRQGKVVLASVLEHHHHHH” the protein production was “failed”.

For “MMDSTASRQDLLTAASMRFQNLIQWSGAVLLCALPLGVTLAATGGEPAAVTQVDIAPCLAAAAGDDMDKAKSACADVIDNEKTAKGDLIKALVARGALYARHDQVDRAIADDSRALSLDPTLADVFNARGELWLKKGDKPKAVQDFGAALKLDPNHEKAKANHKAMARELERIGAQMAVAGKPSFNCARAARAVEKAICGNRELADLDREIYGSHLRVIREAQSPAEARKIQREQDDFIARRNSGFGRPGYDLKKAMQDRLQQINGVDGY”, the protein production was “failed”.

For “MMDVDHKTNLTLRKYFYTLKSMKFTSITYTLSAVLLLGFSIPLVFAQTPDSGLSADCQMPIPPNLNSVDHFLGMGHFQQDCKKDLSAAVAAFSQAIKLNPQAEEPYYHRANSYAAMGNYQAAVTDYTEVIRQNTGRLGFSTGAYWHRARAYEKLGEKQKAISDLTQLIGNNSSLNAEEYLFRANLYKELGNKESAIADYKIAEKLLQQYADGVFHTGMMDTRYEQMLDQVRNELSSMGVAVTVPKTTTGNILRTIAKTEVERALNLARLQSQHPTVKNFDAQLQDLYKQLANTQPQVESGVVKNLIANAAYEKIDDLKIERSQLLTKYTLDSPIIGVIDSQTSELESLIHRNKF”, the protein production was “failed”.
